Experimental findings from the supplement of paper PMC5998384 are described below.

For data set [1], the system named is HeLa Kyoto. Kind of data set: solubility in G1/S (NP-40 vs SDS abundance) (log2 ratio); higher = more soluble. The following applies: cell cycle stage: G1/S.
Data set [2] relates to HeLa Kyoto. Briefly: melting temperature (median over replicates), in situ; higher = more thermally stable.
In data set [3] the test system is HeLa Kyoto. Briefly: solubility change mitosis vs G1/S (difference of NP-40 vs SDS log2 ratios) (log2 ratio difference); higher = more soluble in mitosis.
The test system of data set [4] is HeLa Kyoto. Briefly: thermal stability score vs G1/S (z-score of summed log2 fold changes over temperatures); higher = more thermally stable than in G1/S.
Setting [5] is: cell cycle stage: early G1 (4.5 h after nocodazole release).
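For melting temperature (median over replicates), in situ in this document: HeLa Kyoto cells synchronized by double thymidine or nocodazole block, proteins quantified by TMT10plex mass spectrometry, three independent biological replicates.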
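For solubility change mitosis vs G1/S (difference of NP-40 vs SDS log2 ratios) in this document: synchronized HeLa Kyoto cells (double thymidine block for G1/S, nocodazole release for mitosis), protein amounts in NP-40 versus SDS lysates quantified by mass spectrometry, three biological replicates.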
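For solubility in G1/S (NP-40 vs SDS abundance) in this document: HeLa Kyoto cells arrested at G1/S by double thymidine block, proteins quantified by TMT10plex mass spectrometry in mild NP-40 versus SDS extracts, three biological replicates.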
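For thermal stability score vs G1/S (z-score of summed log2 fold changes over temperatures) in this document: synchronized HeLa Kyoto cells, proteins quantified by TMT10plex mass spectrometry, three biological replicates, mitosis taken 0.5 h after nocodazole release, G1/S directly after double thymidine block.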

On to “MAKQKRKVPEVTEKKNKKLKKASAEGPLLGPEAAPSGEGAGSKGEAVLRPGLDAEPELSPEEQRVLERKLKKERKKEERQRLREAGLVAQHPPARRSGAELALDYLCRWAQKHKNWRFQKTRQTWLLLHMYDSDKVPDEHFSTLLAYLEGLQGRARELTVQKAEALMRELDEEGSDPPLPGRAQRIRQVLQLLS [C7ORF50]”, for which the “solubility in G1/S (log2)” value in the data set with HeLa Kyoto [1] is -0.289. Besides, the melting temperature came to 50 °C with HeLa Kyoto [2] (cell cycle stage: G1/S) and 53.5 °C in the data set on HeLa Kyoto [2] (cell cycle stage: mitosis). Moreover, the “solubility change mitosis (log2)” value with HeLa Kyoto [3] was 0.57. Besides, the thermal stability score in the data set on HeLa Kyoto [4] (setting [5]) stood at 0.0776; with HeLa Kyoto [4] (cell cycle stage: mitosis), 0.494.

On to “MAKRKEENFSSPKNAKRPRQEELEDFDKDGDEDECKGTTLTAAEVGIIESIHLKNFMCHSMLGPFKFGSNVNFVVGNNGSGKSAVLTALIVGLGGRAVATNRGSSLKGFVKDGQNSADISITLRNRGDDAFKASVYGNSILIQQHISIDGSRSYKLKSATGSVVSTRKEELIAILDHFNIQVDNPVSVLTQEMSKQFLQSKNEGDKYKFFMKATQLEQMKEDYSYIMETKERTKEQIHQGEERLTELKRQCVEKEERFQSIAGLSTMKTNLESLKHEMAWAVVNEIEKQLNAIRDNIKIGEDRAARLDRKMEEQQVRLNEAEQKYKDIQDKLEKISEETNARAPECMALKADVVAKKRAYNEAEVLYNRSLNEYKALKKDDEQLCKRIEELKKSTDQSLEPERLERQKKISWLKERVKAFQNQENSVNQEIEQFQQAIEKDKEEHGKIKREELDVKHALSYNQRQLKELKDSKTDRLKRFGPNVPALLEAIDDAYRQGHFTYKPVGPLGACIHLRDPELALAIESCLKGLLQAYCCHNHADERVLQALMKRFYLPGTSRPPIIVSEFRNEIYDVRHRAAYHPDFPTVLTALEIDNAVVANSLIDMRGIETVLLIKNNSVARAVMQSQKPPKNCREAFTADGDQVFAGRYYSSENTRPKFLSRDVDSEISDLENEVENKTAQILNLQQHLSALEKDIKHNEELLKRCQLHYKELKMKIRKNISEIRELENIEEHQSVDIATLEDEAQENKSKMKMVEEHMEQQKENMEHLKSLKIEAENKYDAIKFKINQLSELADPLKDELNLADSEVDNQKRGKRHYEEKQKEHLDTLNKKKRELDMKEKELEEKMSQARQICPERIEVEKSASILDKEINRLRQKIQAEHASHGDREEIMRQYQEARETYLDLDSKVRTLKKFIKLLGEIMEHRFKTYQQFRRCLTLRCKLYFDNLLSQRAYCGKMNFDHKNETLSISVQPGEGNKAAFNDMRALSGGERSFSTVCFILSLWSIAESPFRCLDEFDVYMDMVNRRIAMDLILKMADSQRFRQFILLTPQSMSSLPSSKLIRILRMSDPERGQTTLPFRPVTQEEDDDQR [SMC6]”, for which, in the data set with HeLa Kyoto [1], the “solubility in G1/S (log2)” value is -0.133. Besides, the figures for the melting temperature in the data set on HeLa Kyoto [2] (cell cycle stage: G1/S) and in the data set on HeLa Kyoto [2] (cell cycle stage: mitosis) were 50.6 °C and 50.4 °C, respectively. Moreover, the “solubility change mitosis (log2)” value with HeLa Kyoto [3] came to 0.0261. For the same sequence, the results for the thermal stability score in the data set on HeLa Kyoto [4] (setting [5]) and in the data set with HeLa Kyoto [4] (cell cycle stage: mitosis) were 0.465 and -0.0501, respectively.

Regarding “MALDVKSRAKRYEKLDFLGEGQFATVYKARDKNTNQIVAIKKIKLGHRSEAKDGINRTALREIKLLQELSHPNIIGLLDAFGHKSNISLVFDFMETDLEVIIKDNSLVLTPSHIKAYMLMTLQGLEYLHQHWILHRDLKPNNLLLDENGVLKLADFGLAKSFGSPNRAYTHQVVTRWYRAPELLFGARMYGVGVDMWAVGCILAELLLRVPFLPGDSDLDQLTRIFETLGTPTEEQWPDMCSLPDYVTFKSFPGIPLHHIFSAAGDDLLDLIQGLFLFNPCARITATQALKMKYFSNRPGPTPGCQLPRPNCPVETLKEQSNPALAIKRKRTEALEQGGLPKKLIF [CDK7]”, in the data set with HeLa Kyoto [1], the “solubility in G1/S (log2)” value amounted to 0.167. The melting temperature in the data set with HeLa Kyoto [2] (cell cycle stage: G1/S) and with HeLa Kyoto [2] (cell cycle stage: mitosis) was 51 °C each time. In the data set on HeLa Kyoto [3], the “solubility change mitosis (log2)” value was -0.142. Further, the thermal stability score in the data set on HeLa Kyoto [4] (setting [5]) came out at 0.106; in the data set on HeLa Kyoto [4] (cell cycle stage: mitosis), 1.13.

On to “MALGLKCFRMVHPTFRNYLAASIRPVSEVTLKTVHERQHGHRQYMAYSAVPVRHFATKKAKAKGKGQSQTRVNINAALVEDIINLEEVNEEMKSVIEALKDNFNKTLNIRTSPGSLDKIAVVTADGKLALNQISQISMKSPQLILVNMASFPECTAAAIKAIRESGMNLNPEVEGTLIRVPIPQVTREHREMLVKLAKQNTNKAKDSLRKVRTNSMNKLKKSKDTVSEDTIRLIEKQISQMADDTVAELDRHLAVKTKELLG [MRRF]”, for which the “solubility in G1/S (log2)” value in the data set with HeLa Kyoto [1] was determined as 0.605. Also, the figures for the melting temperature in the data set on HeLa Kyoto [2] (cell cycle stage: G1/S) and in the data set on HeLa Kyoto [2] (cell cycle stage: mitosis) were 50.1 °C and 51.3 °C, respectively. The “solubility change mitosis (log2)” value with HeLa Kyoto [3] is 0.328. The thermal stability score in the data set on HeLa Kyoto [4] (setting [5]) was -2.43; in the data set on HeLa Kyoto [4] (cell cycle stage: mitosis) it was -2.36.

Take “MALKQISSNKCFGGLQKVFEHDSVELNCKMKFAVYLPPKAETGKCPALYWLSGLTCTEQNFISKSGYHQSASEHGLVVIAPDTSPRGCNIKGEDESWDFGTGAGFYVDATEDPWKTNYRMYSYVTEELPQLINANFPVDPQRMSIFGHSMGGHGALICALKNPGKYKSVSAFAPICNPVLCPWGKKAFSGYLGTDQSKWKAYDATHLVKSYPGSQLDILIDQGKDDQFLLDGQLLPDNFIAACTEKKIPVVFRLQEGYDHSYYFIATFITDHIRHHAKYLNA [ESD]”: in the data set with HeLa Kyoto [1], the “solubility in G1/S (log2)” value is -0.0889. Further, the melting temperature in the data set on HeLa Kyoto [2] (cell cycle stage: G1/S) came to 55.8 °C; in the data set with HeLa Kyoto [2] (cell cycle stage: mitosis), 56.4 °C. In the data set with HeLa Kyoto [3], the “solubility change mitosis (log2)” value was -0.0867. For the same sequence, the values for the thermal stability score with HeLa Kyoto [4] (setting [5]) and with HeLa Kyoto [4] (cell cycle stage: mitosis) were -1.51 and -2.28, respectively.

Regarding “MALLALLLVVALPRVWTDANLTARQRDPEDSQRTDEGDNRVWCHVCERENTFECQNPRRCKWTEPYCVIAAVKIFPRFFMVAKQCSAGCAAMERPKPEEKRFLLEEPMPFFYLKCCKIRYCNLEGPPINSSVFKEYAGSMGESCGGLWLAILLLLASIAAGLSLS [LY6K]”, in the data set on HeLa Kyoto [1], the “solubility in G1/S (log2)” value worked out at 0.0392. Further, the melting temperature in the data set with HeLa Kyoto [2] (cell cycle stage: G1/S) was 52.6 °C; with HeLa Kyoto [2] (cell cycle stage: mitosis) it was 52.9 °C. Besides, the “solubility change mitosis (log2)” value in the data set with HeLa Kyoto [3] was -0.107. Moreover, the values for the thermal stability score in the data set on HeLa Kyoto [4] (setting [5]) and in the data set with HeLa Kyoto [4] (cell cycle stage: mitosis) were 2.6 and 2.04, respectively.
